Reference: patent US20170260272A1 (Novartis, published 2017)

Legend:
[1] = target: T1, APP-Avi-soluble human LOX-1(61-273) (human, UniProt P78380 61-273); test: competition ELISA: oxLDL binding to plate-bound biotinylated human sLOX-1
Method: NeutrAvidin 384 well plates were coated with 2.5 μg/ml biotinylated LOX-1 diluted in PBS. After blocking with 25% Block Ace (AbD Serotec, Cat#BUF029) in PBS, purified Fabs or IgGs diluted in PBS/1% BSA were added. Subsequently OxLDL (copper-sulfate oxidized LDL, Kalen Biomedical #770202) or MDA-LDL (Academy Biomedical, #20P-UMD-L102) ligand diluted in PBS/1% BSA were allowed to bind to coated LOX-1. Secondary antibody (HRP conjugated sheep anti ApoB IgG; The Binding Site) diluted 1:1,000 in PBS/1% BSA was added followed by addition of TMB substrate (Thermo Scientific). After 10 minutes 1M H2SO4 was added and absorbance was determined at 450 nm. During early screenings, Fab fragments were also tested in this oxLDL binding assay using Fab-containing crude E. coli lysates.
The ability of LOX-1 antibodies to inhibit oxLDL binding to LOX-1 protein was determined using the method described in Example 4. In addition to “high binding OxLDL” from Kalen Biomedical (catalog number 770212-7), which is generated by copper sulfate mediated oxidation of LDL, two other forms of modified LDL were tested in this assay: malondialdehyde modified LDL (Academy Bio-Medical Co. catalog number 20P-MD-L105) and hypochlorite modified LDL. Hypochlorite modified LDL was prepared according to the following procedure. Human LDL (Kalen Biomedical catalog number 770200-4) was diluted with PBS to a final concentration of 0.25 mg/mL. Sodium hypochlorite (NaOCI, JT Baker catalog number 9416-01) was then added to 0.1 mM final concentration. The solution was incubated at room temperate for 4 hours, then quenched by adding L-methionine to a final concentration of reaction by adding 5 μl of 100 mM Mehionine per 200 μl total volume.

[2] = target: T1, APP-Avi-soluble human LOX-1(61-273); test: SET, IgG vs soluble human LOX-1
Method: (§1) Affinity determination for anti-LOX-1 IgGs using Solution Equilibrium Titration (SET) was basically performed as described in the literature (Friguet et al., 1985 J Immunol Methods 77: 305-319). The assays were performed in a 96-well polypropylene plate (Thermo Scientific, Catalog no. AB-1127) using a constant concentration of LOX-1 antibody mixed with different concentrations of non-biotinylated human or cynomolgus monkey LOX-1 protein and incubated at 22° C. for 14 hours with constant shaking (300 rpm).
(§2) On a pre-blocked MSD plate (Meso Scale Discovery, catalog no. L21SA) biotinylated human or cynomolgus monkey soluble LOX-1 protein was immobilized and washed afterwards. The equilibrium binding reactions were then applied to the MSD plate with immobilized LOX-1 and incubated for 30 min. The unbound material was removed by washing the plate, and the captured antibody was detected by adding Sulfo-tagged goat anti-human IgG (Meso Scale Discovery, catalog no. R3AJ-1). After incubation and washing 1×MSD read buffer T(Meso Scale Discovery, catalog no. R92TC-2) was added and the plate was developed using a Sector Imager 6000 (Meso Scale Discovery). The data were transferred to Excel for analysis and plotted using GraphPad Prism v5. The KD values were determined by fitting the data to the following equation: […]

[3] = target: T2, human LOX-1 (full-length, on cells) (human, UniProt P78380 1-273); test: cell-based or functional assay
[4] = target: T2, human LOX-1 (full-length, on cells); test: flow cytometry: DiI-oxLDL binding to human LOX-1 transfected HEK293 cells
Method: The huLOX-1/HEK293 cells were resuspended at 1×10⁶ cells/mL and seeded 50 μL per well into a 96-well V-bottom plate (5×10⁴ cells per well). LOX-1 or irrelevant control antibodies in assay medium (DMEM+10% FBS) were then added to the cells. Typical final antibody concentrations ranged from 0.006 μg/mL to 20 μg/mL. The cells were incubated at 37° C. for 1 hour, then washed twice with warm HBSS. Dil-oxLDL (human dil-labeled “High Oxidized” LDL, Kalen Biomedical, catalog number 770262-9; Dil is 1,1′-dioctadecyl-3,3,3′,3′-tetramethylindocarbocyanine perchlorate) in 50 ul assay medium was then added to a final concentration 30 to 100 μg/mL. The cells were then incubated at 37° C. for 2 hours, and then washed twice with FACS buffer (2% FBS in PBS). Cells were then analyzed for intensity of Di-I fluorescence by flow cytometry, as depicted in FIGS. 2A-2B and Table 3.

[5] = target: T3, APP-Avi-soluble cynomolgus monkey LOX-1(61-273) (cynomolgus monkey); test: SET, IgG vs soluble cynomolgus LOX-1
T3 construct: Non-biotinylated as titrated antigen in SET, biotinylated for capture on the plate; also called cyno sLOX-1; cynomolgus monkey soluble LOX-1
Method: as §1, §2

T3 sequence (chain, as listed by the source limits assumed): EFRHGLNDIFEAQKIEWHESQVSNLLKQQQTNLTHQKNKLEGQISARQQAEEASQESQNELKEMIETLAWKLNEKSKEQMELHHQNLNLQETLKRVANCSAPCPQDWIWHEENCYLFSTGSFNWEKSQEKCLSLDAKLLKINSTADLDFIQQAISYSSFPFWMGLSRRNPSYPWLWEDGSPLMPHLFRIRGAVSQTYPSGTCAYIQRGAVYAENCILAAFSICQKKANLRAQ

| IC50 [1] [nM] | Kd [2] [nM] | Inhibition of ROS generation (IC50, nM) [3] [nM] | IC50 [4] [nM] | Kd [5] [nM] | Binder |
| --- | --- | --- | --- | --- | --- |
| 7 | 0.27 | – | – | – | MOR020151 (antibody, human IgG1, lambda, L234A L235A, V domains shown, also called MOR20151) VH: QVQLVESGGGLVKPGGSLRLSCAASGFTFSSYALSWVRQAPGKGLEWVGRIKSKTMGGTSDYAAPVKGRFTISRDDSKNTLYLQMNSLKTEDTAVYYCARDFWADHYYYFDYWGQGTLVTVSS VL: DIALTQPASVSGSPGQSITISCTGTSSDVGYINYVNWYQQHPGKAPKLMIYEVSNRPSGVSNRFSGSKSGNTASLTISGLQAEDEADYYCASWDWYDNVVFGGGTKLTVLG |
| 5 | 0.56 | – | – | – | MOR020159 (antibody, human IgG1, kappa, L234A L235A, V domains shown, also called MOR20159) VH: QVQLVQSGAEVKKPGSSVKVSCKASGGTFSDYAISWVRQAPGQGLEWMGGIVPIVGTANYAQKFQGRVTITADESTSTAYMELSSLRSEDTAVYYCARDSSTSYYYYFDYWGQGTLVTVSS VL: DIQMTQSPSSLSASVGDRVTITCRASQDINSWLAWYQQKPGKAPKLLIYQASNLQSGVPSRFSGSGSGTDFTLTISSLQPEDFATYYCQQIDHTPFTFGQGTKVEIKR |
| 10 | 0.005 | 1.6 | 0.6 | 0.005 | MOR22034 (antibody, human IgG1, kappa, L234A L235A, V domains shown, Human IgG1f LALA; also called MOR022034; MOR20234) VH: QVQLVQSGAEVKKPGSSVKVSCKASGGTFSDYAISWVRQAPGQGLEWMGGIVPIVGTANYAQKFQGRVTITADESTSTAYMELSSLRSEDTAVYYCARDSSTSYYYYFDYWGQGTLVTVSS VL: DIQMTQSPSSLSASVGDRVTITCRASQDISSWLAWYQQKPGKAPKLLIYQASNLQSGVPSRFSGSGSGTDFTLTISSLQPEDFATYYCQQMWQFPITFGQGTKVEIKR |
| 5 | 0.0014 | – | – | – | MOR020152 (antibody, human IgG1, lambda, L234A L235A, V domains shown, also called MOR20152) VH: QVQLVQSGAEVKKPGSSVKVSCKASGGTFSSYAISWVRQAPGQGLEWMGRIIPIFGGANYAQKFQGRVTITADESTSTAYMELSSLRSEDTAVYYCARDPLYRSDYYYHWFDFWGQGTLVTVSS VL: DIALTQPASVSGSPGQSITISCTGTSSDVGNFNYVSWYQQHPGKAPKLMIYGVNNRPSGVSNRFSGSKSGNTASLTISGLQAEDEADYYCAAYGWALDEVVFGGGTKLTVLG |

Continued, binder first:

| Binder | IC50 [1] [nM] | Kd [2] [nM] | Inhibition of ROS generation (IC50, nM) [3] [nM] | IC50 [4] [nM] | Kd [5] [nM] |
| --- | --- | --- | --- | --- | --- |
| MOR020148 (antibody, human IgG1, lambda, L234A L235A, V domains shown, also called MOR20148) VH: QVQLLESGGGLVQSGGSLRLSCAASGFTFRSGAAMHWVRQAPGKGLEWVSGISSFSSSTDYADSVKGRFTISRDNSKNTLYLQMNSLRAEDTAVYYCARNFKYAMDYWGQGTLVTVSS VL: DIALTQPASVSGSPGQSITISCTGTSSDVGSINYVSWYQQHPGKAPKMIYAVSYRPSGVSNRFSGSKSGNTASLTISGLQAEDEADYYCQVWDWRSDSRVFGGGTKLTVLG | 9 | 6.5 | – | – | – |
| MOR020133 (antibody, human IgG1, lambda, L234A L235A, V domains shown, also called MOR20133) VH: QVQLVQSGAEVKKPGESLKISCKGSGYSFTNYWIAWVRQMPGKGLEWMGRIFPGDSTTTYSPSFQGQVTISADKSISTAYLQWSSLKASDTAMYYCARGKRGATHPTQYEGWEVYGFDPWGQGTLVTVSS VL: DIELTQPPSVSVSPGQTASITCSGDALGGKYASWYQQKPGQAPVLVIYDDNKRPSGIPERFSGSNSGNTATLTISGTQAEDEADYYCQSWAFYSGVFGGGTKLTVLG | 6 | 0.144 | – | – | – |
| MOR020052 (antibody, human IgG1, lambda, L234A L235A, V domains shown, also called MOR20052) VH: QVQLVQSGAEVKKPGSSVKVSCKASGGTFSDYAISWVRQAPGQGLEWMGGIIPGFGQANYAQKFQGRVTITADESTSTAYMELSSLRSEDTAVYYCAREPSPLYGPYSDYVMDPWGQGTLVTVSS VL: DIALTQPASVSGSPGQSITISCTGTSSDVGYFNFVSWYQQHPGKAPKLMIYDVSNRPSGVSNRFSGSKSGNTASLTISGLQAEDEADYYCASYGWDSSWVFGGGTKLTVLG | 12 | 0.5 | – | – | – |
| MOR22030 (antibody, human IgG1, lambda, L234A L235A, Human IgG1f LALA; also called MOR022030; MOR20230) heavy: not shown light: QSALTQPASVSGSPGQSITISCTGTSSDVGYINYVNWYQQHPGKAPKLMIYEVSNRPSGVSNRFSGSKSGNTASLTISGLQAEDEADYYCASWDWYDNVVFGGGTKLTVLGQPKAAPSVTLFPPSSEELQANKATLVCLISDFYPGAVTVAWKADSSPVKAGVETTTPSKQSNNKYAASSYLSLTPEQWKSHRSYSCQVTHEGSTVEKTVAPTECS | 6 | 0.004 | 2.5 | 0.5 | 0.007 |
| MOR22029 (antibody, human IgG1, lambda, L234A L235A, Human IgG1f LALA; also called MOR022029; MOR20229) heavy: not shown light: QSALTQPASVSGSPGQSITISCTGTSSDVGYINYVNWYQQHPGKAPKLMIYEVSNRPSGVSNRFSGSKSGNTASLTISGLQAEDEADYYCASWDWYDNVVFGGGTKLTVLGQPKAAPSVTLFPPSSEELQANKATLVCLISDFYPGAVTVAWKADSSPVKAGVETTTPSKQSNNKYAASSYLSLTPEQWKSHRSYSCQVTHEGSTVEKTVAPTECS | 4 | 0.01 | 2.2 | 0.4 | 0.007 |
| MOR020144 (antibody, human IgG1, lambda, L234A L235A, V domains shown, also called MOR20144) VH: QVQLLESGGGLVQPGGSLRLSCAASGFTFSDYALHWVRQAPGKGLEWVSVISYSGGYTYYADSVKGRFTISRDNSKNTLYLQMNSLRAEDTAVYYCARSPGLTSYHDSWGQGTLVTVSS VL: DIVLTQPPSVSGAPGQRVTISCSGSSSNIGSNYVSWYQQLPGTAPKLLIHSNSHRPSGVPDRFSGSKSGTSASLAITGLQAEDEADYYCQSWDYESERVVFGGGTKLTVLG | 5 | 0.0002 | – | – | – |
| MOR022025 (antibody, human IgG1, lambda, L234A L235A, V domains shown, Human IgG1f LALA; also called MOR20225; MOR020225) VH: QVQLLESGGGLVQPGGSLRLSCAASGFTFSDYALHWVRQAPGKGLEWVSVISYQGGFIYYADSVKGRFTISRDNSKNTLYLQMNSLRAEDTAVYYCARSPGLTSYHDSWGQGTLVTVSS VL: QSVLTQPPSVSGAPGQRVTISCSGSSSNIGSNYVSWYQQLPGTAPKLLIHSTSHRPSGVPDRFSGSKSGTSASLAITGLQAEDEADYYCQSWDYESERVVFGGGTKLTVLG | 11 | 0.0003 | 4.6 | 1 | 0.0007 |
| MOR22028 (antibody, human IgG1, lambda, L234A L235A, V domains shown, Human IgG1f LALA; also called MOR022028; MOR20228) VH: QVQLLESGGGLVQPGGSLRLSCAASGFTFSDYALHWVRQAPGKGLEWVSVISYAGGFKFYADSVKGRFTISRDNSKNTLYLQMNSLRAEDTAVYYCARSPGLTSYHDSWGQGTLVTVSS VL: QSVLTQPPSVSGAPGQRVTISCSGSSSNIGSNYVSWYQQLPGTAPKLLIHSSSHRPSGVPDRFSGSKSGTSASLAITGLQAEDEADYYCQSWDYESERVVFGGGTKLTVLG | 9 | 0.0006 | 3.5 | 0.7 | 0.0005 |
| MOR22031 (antibody, human IgG1, kappa, L234A L235A, V domains shown, Human IgG1f LALA; also called MOR022031; MOR20231) VH: QVQLVQSGAEVKKPGSSVKVSCKASGGTFSDYAISWVRQAPGQGLEWMGGIMPISGAPYYAQKFQGRVTITADESTSTAYMELSSLRSEDTAVYYCARDSSTSYYYYFDYWGQGTLVTVSS VL: DIQMTQSPSSLSASVGDRVTITCRASQDISSWLAWYQQKPGKAPKLLIYQASNLQSGVPSRFSGSGSGTDFTLTISSLQPEDFATYYCQQIDHTPFTFGQGTKVEIKR | 4 | 0.003 | 1.9 | 0.8 | 0.004 |
